Patent US20230265151A1, “GIP/GLP1 CO-AGONIST COMPOUNDS” (priority 2020, published 2023)
*1 amine or outer side, *2 acyl side, *3 side chain or, on linkers, in order; H or OH if unused. Where no end group is shown, it is not given here. Side-chain parts run from the residue outwards. [ ]: non-standard residue; d: D form. The star is where a group is joined. αMePhe(2-F) = C[C@](N)(Cc1ccccc1F)C(=O)O; γGlu = O=C(O)[C@H](CCC(=O)[*:2])N[*:1]; C14 diacid = O=C(O)CCCCCCCCCCCCC(=O)*; αMeY = C[C@](N)(Cc1ccc(O)cc1)C(=O)O; αMeL = CC(C)C[C@](C)(N)C(=O)O; Nle = CCCC[C@H](N)C(=O)O; Orn = NCCC[C@H](N)C(=O)O; AEEA = NCCOCCOCC(=O)O; Aib = CC(C)(N)C(=O)O

T1: human GIP receptor (human, UniProt P48546 22-466)
T1 sequence (looked up): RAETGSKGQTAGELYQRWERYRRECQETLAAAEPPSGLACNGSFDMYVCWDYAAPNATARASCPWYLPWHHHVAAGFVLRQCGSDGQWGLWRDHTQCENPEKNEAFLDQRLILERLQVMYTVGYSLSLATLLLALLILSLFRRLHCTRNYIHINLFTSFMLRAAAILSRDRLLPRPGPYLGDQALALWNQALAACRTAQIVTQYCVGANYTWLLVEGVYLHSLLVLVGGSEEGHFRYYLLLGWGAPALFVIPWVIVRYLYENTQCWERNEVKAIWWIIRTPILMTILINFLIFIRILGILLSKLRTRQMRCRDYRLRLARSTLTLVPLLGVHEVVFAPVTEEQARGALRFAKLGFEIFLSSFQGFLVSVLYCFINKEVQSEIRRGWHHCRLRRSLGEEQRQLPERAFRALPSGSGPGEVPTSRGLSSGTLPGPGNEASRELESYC

B1: Example 265 (peptide)
peptide: YXEGTXTSDXSIXLDXKAQXKFIXXLIEGGPSSGAPPPS
modifications: Y-Aib-EGT-αMeF(2F)-TSD-OMeY-SI-αMeL-LD-Orn-K((2-[2-(2-Amino-ethoxy)-ethoxy]-acetyl)2-CO-(CH2)12-CO2H)AQ-Aib-K((2-[2-(2-Amino-ethoxy)-ethoxy]-acetyl)2-CO-(CH2)12-CO2H)FI-(D-Glu)-αMeY-LIEGGPSSGAPPPS-NH2 …
B2: Example 266 (peptide)
peptide: YXEGTXTSDXSIXLDXKAQXEFIXXLIKGGPSSGAPPPS
modifications: Y-Aib-EGT-αMeF(2F)-TSD-OMeY-SI-αMeL-LD-Orn-K((2-[2-(2-Amino-ethoxy)-ethoxy]-acetyl)2-CO-(CH2)12-CO2H)AQ-Aib-EFI-(D-Glu)-αMeY-LIK((2-[2-(2-Amino-ethoxy)-ethoxy]-acetyl)2-CO-(CH2)12-CO2H)GGPSSGAPPPS-NH2 …
B3: Example 267 (peptide)
peptide: YXEGTXTSDXSIXLDXKAQXEFIXXLIEGGPSSGAPPPSK
modifications: Y-Aib-EGT-αMeF(2F)-TSD-OMeY-SI-αMeL-LD-Orn-K((2-[2-(2-Amino-ethoxy)-ethoxy]-acetyl)2-CO-(CH2)12-CO2H)AQ-Aib-EFI-(D-Glu)-αMeY-LIEGGPSSGAPPPSK((2-[2-(2-Amino-ethoxy)-ethoxy]-acetyl)2-CO-(CH2)12-CO2H)-NH2
B4: Example 268 (peptide)
peptide: YXEGTXTSDXSIXLDXIAQXKFIXXLIEGGPSSGAPPPSK
modifications: Y-Aib-EGT-αMeF(2F)-TSD-OMeY-SI-αMeL-LD-Orn-IAQ-Aib-K((2-[2-(2-Amino-ethoxy)-ethoxy]-acetyl)2-CO-(CH2)12-CO2H)FI-(D-Glu)-αMeY-LIEGGPSSGAPPPSK((2-[2-(2-Amino-ethoxy)-ethoxy]-acetyl)2-CO-(CH2)12-CO2H)-NH2
B5: Example 269 (peptide)
peptide: Y[Aib]EGT[αMePhe(2-F)]TSD[Nle]SI[αMeL]LD[Orn]IAQ[Aib]EFIK([AEEA-AEEA-γGlu-C14 diacid])[αMeY]LIK([AEEA-AEEA-γGlu-C14 diacid])GGPSSGAPPPS-NH2
modifications: N-terminus assumed
SMILES: CCCC[C@H](NC(=O)[C@H](CC(=O)O)NC(=O)[C@H](CO)NC(=O)[C@@H](NC(=O)[C@](C)(Cc1ccccc1F)NC(=O)[C@@H](NC(=O)CNC(=O)[C@H](CCC(=O)O)NC(=O)C(C)(C)NC(=O)[C@@H](N)Cc1ccc(O)cc1)[C@@H](C)O)[C@@H](C)O)C(=O)N[C@@H](CO)C(=O)N[C@H](C(=O)N[C@@](C)(CC(C)C)C(=O)N[C@@H](CC(C)C)C(=O)N[C@@H](CC(=O)O)C(=O)N[C@@H](CCCN)C(=O)N[C@H](C(=O)N[C@@H](C)C(=O)N[C@@H](CCC(N)=O)C(=O)NC(C)(C)C(=O)N[C@@H](CCC(=O)O)C(=O)N[C@@H](Cc1ccccc1)C(=O)N[C@H](C(=O)N[C@@H](CCCCNC(=O)COCCOCCNC(=O)COCCOCCNC(=O)CC[C@H](NC(=O)CCCCCCCCCCCCC(=O)O)C(=O)O)C(=O)N[C@@](C)(Cc1ccc(O)cc1)C(=O)N[C@@H](CC(C)C)C(=O)N[C@H](C(=O)N[C@@H](CCCCNC(=O)COCCOCCNC(=O)COCCOCCNC(=O)CC[C@H](NC(=O)CCCCCCCCCCCCC(=O)O)C(=O)O)C(=O)NCC(=O)NCC(=O)N1CCC[C@H]1C(=O)N[C@@H](CO)C(=O)N[C@@H](CO)C(=O)NCC(=O)N[C@@H](C)C(=O)N1CCC[C@H]1C(=O)N1CCC[C@H]1C(=O)N1CCC[C@H]1C(=O)N[C@@H](CO)C(N)=O)[C@@H](C)CC)[C@@H](C)CC)[C@@H](C)CC)[C@@H](C)CC
B6: Example 270 (peptide)
peptide: YXEGTXTSDXSIXLDXIAQXEFIKXLIKGGPSSGAPPPS
modifications: Y-Aib-EGT-αMeF(2F)-TSD-hTyr-SI-αMeL-LD-Orn-IAQ-Aib-EFIK((2-[2-(2-Amino-ethoxy)-ethoxy]-acetyl)2-(γ-Glu)-CO-(CH2)12-CO2H)-αMeY-LIK((2-[2-(2-Amino-ethoxy)-ethoxy]-acetyl)2-(γ-Glu)-CO-(CH2)12-CO2H)GGPSSGAPPPS-NH2
B7: Example 271 (peptide)
peptide: YXEGTXTSDXSIXLDXKAQXKFIXXLIEGGPSSGAPPPS
modifications: Y-Aib-EGT-αMeF(2F)-TSD-Nle-SI-αMeL-LD-Orn-K((2-[2-(2-Amino-ethoxy)-ethoxy]-acetyl)2-CO-(CH2)12-CO2H)AQ-Aib-K((2-[2-(2-Amino-ethoxy)-ethoxy]-acetyl)2-CO-(CH2)12-CO2H)FI-(D-Glu)-αMeY-LIEGGPSSGAPPPS-NH2
B8: Example 272 (peptide)
peptide: YXEGTXTSDXSIXLDXKAQXKFIXXLIEGGPSSGAPPPS
modifications: Y-Aib-EGT-αMeF(2F)-TSD-hTyr-SI-αMeL-LD-Orn-K((2-[2-(2-Amino-ethoxy)-ethoxy]-acetyl)2-CO-(CH2)12-CO2H)AQ-Aib-K((2-[2-(2-Amino-ethoxy)-ethoxy]-acetyl)2-CO-(CH2)12-CO2H)FI-(D-Glu)-αMeY-LIEGGPSSGAPPPS-NH2 …
B9: Example 273 (peptide)
peptide: YXEGTXTSDXSIXLDXKAQXEFIXXLIEGGPSSGAPPPSK
modifications: Y-Aib-EGT-αMeF(2F)-TSD-4Pal-SI-αMeL-LD-Orn-K((2-[2-(2-Amino-ethoxy)-ethoxy]-acetyl)2-(γ-Glu)-(10-(4-carboxyphenoxy)decanoyl))AQ-Aib-EFI-(D-Glu)-αMeY-LIEGGPSSGAPPPSK((2-[2-(2-Amino-ethoxy)-ethoxy]-acetyl)2-(γ-Glu)-(10-(4-carboxyphenoxy)decanoyl))-NH2
B10: Example 274 (peptide)
peptide: YXEGTXTSDXSIXLDXIAQXEFIKXLIKGGPSSGAPPPS
modifications: Y-Aib-EGT-αMeF(2F)-TSD-4Pa1-SI-αMeL-LD-Orn-IAQ-Aib-EFIK((2-[2-(2-Amino-ethoxy)-ethoxy]-acetyl)2-(γ-Glu)-(10-(4-carboxyphenoxy)decanoyl))-αMeY-LIK((2-[2-(2-Amino-ethoxy)-ethoxy]-acetyl)2-(γ-Glu)-(10-(4-carboxyphenoxy)decanoyl))GGPSSGAPPPS-NH2
B11: Example 275 (peptide)
peptide: YXEGTXTSDXSIXLDXIAQXKFIXXLIKGGPSSGAPPPS
modifications: Y-Aib-EGT-αMeF(2F)-TSD-4Pa1-SI-αMeL-LD-Orn-IAQ-Aib-K((2-[2-(2-Amino-ethoxy)-ethoxy]-acetyl)2-(γ-Glu)-(10-(4-carboxyphenoxy)decanoyl))FI-(D-Glu)-αMeY-LIK((2-[2-(2-Amino-ethoxy)-ethoxy]-acetyl)2-(γ-Glu)-(10-(4-carboxyphenoxy)decanoyl))GGPSSGAPPPS-NH2
B12: Example 276 (peptide)
peptide: YXEGTXTSDXSIXLDXIAQXKFIXXLIEGGPSSGAPPPSK
modifications: Y-Aib-EGT-αMeF(2F)-TSD-4Pal-SI-αMeL-LD-Orn-IAQ-Aib-K((2-[2-(2-Amino-ethoxy)-ethoxy]-acetyl)2-(y-Glu)-(10-(4-carboxyphenoxy)decanoyl))FI-(D-Glu)-αMeY-LIEGGPSSGAPPPSK((2-[2-(2-Amino-ethoxy)-ethoxy]-acetyl)2-(γ-Glu)-(10-(4-carboxyphenoxy)decanoyl))-NH2
B13: Example 277 (peptide)
peptide: YXEGTXTSDXSIXLDXKAQXKFIXXLIEGGPSSGAPPPS
modifications: Y-Aib-EGT-αMeF(2F)-TSD-OMeY-SI-αMeL-LD-Orn-K((2-[2-(2-Amino-ethoxy)-ethoxy]-acetyl)2-(γ-Glu)-(10-(4-carboxyphenoxy)decanoyl))AQ-Aib-K((2-[2-(2-Amino-ethoxy)-ethoxy]-acetyl)2-(γ-Glu)-(10-(4-carboxyphenoxy)decanoyl))FI-(D-Glu)-αMeY-LIEGGPSSGAPPPS-NH2
B14: Example 278 (peptide)
peptide: YXEGTXTSDXSIXLDXKAQXEFIXXLIKGGPSSGAPPPS
modifications: Y-Aib-EGT-αMeF(2F)-TSD-OMeY-SI-αMeL-LD-Orn-K((2-[2-(2-Amino-ethoxy)-ethoxy]-acetyl)2-(γ-Glu)-(10-(4-carboxyphenoxy)decanoyl))AQ-Aib-EFI-(D-Glu)-αMeY-LIK((2-[2-(2-Amino-ethoxy)-ethoxy]-acetyl)2-(γ-Glu)-(10-(4-carboxyphenoxy)decanoyl))GGPSSGAPPPS-NH2
B15: Example 279 (peptide)
peptide: YXEGTXTSDXSIXLDXIAQXEFIKXLIKGGPSSGAPPPS
modifications: Y-Aib-EGT-αMeF(2F)-TSD-OMeY-SI-αMeL-LD-Orn-IAQ-Aib-EFIK((2-[2-(2-Amino-ethoxy)-ethoxy]-acetyl)2-(γ-Glu)-(10-(4-carboxyphenoxy)decanoyl))-αMeY-LIK((2-[2-(2-Amino-ethoxy)-ethoxy]-acetyl)2-(γ-Glu)-(10-(4-carboxyphenoxy)decanoyl))GGPSSGAPPPS-NH2

Columns and labels:
Assay in all cases: cell-based or functional assay
human GIP receptor = biological target: T1, human GIP receptor
human GLP-1 receptor = human GLP-1 receptor (human, UniProt P43220 24-463)
human glucagon receptor = human glucagon receptor (human, UniProt P47871 26-477)

Binder | cAMP EC50 (1.0% HSA) (human GIP receptor) | cAMP EC50 (1.0% HSA) (human GLP-1 receptor) | cAMP EC50 (1.0% HSA) (human glucagon receptor) | cAMP Emax (1.0% HSA) (human GIP receptor)
B1 | 0.775 nM | 5.14 nM | > 9950 nM | 
B2 | 0.575 nM | 5.83 nM | > 9950 nM | 
B3 | 0.808 nM | 8.46 nM | > 9950 nM | 
B4 | 5.06 nM | 26.5 nM | > 9950 nM | 92.3%
B5 | 2.65 nM | 46.5 nM | > 9950 nM | 
B6 | 3.8 nM | 32.6 nM | > 9950 nM | 80.9%
B7 | 0.767 nM | 10.2 nM | > 9950 nM | 
B8 | 0.561 nM | 4.72 nM | > 9950 nM | 81.2%
B9 | 0.318 nM | 40.9 nM | > 9950 nM | 
B10 | 1.16 nM | 32.9 nM | > 9950 nM | 
B11 | 0.926 nM | 33.5 nM | > 9950 nM | 
B12 | 1.97 nM | 63.6 nM | > 9950 nM | 91.4%
B13 | 0.962 nM | 12.2 nM | > 9950 nM | 
B14 | 1.41 nM | 27 nM | > 9950 nM | 
B15 | 3.21 nM | 36.6 nM | > 9950 nM | 
